Measured values: the supplement of paper PMC5998384

Key:
HeLa Kyoto [1] = assay: solubility in G1/S (NP-40 vs SDS abundance) (log2 ratio); higher = more soluble; conditions: cell cycle stage: G1/S
HeLa Kyoto [2] = assay: solubility change mitosis vs G1/S (difference of NP-40 vs SDS log2 ratios) (log2 ratio difference); higher = more soluble in mitosis
HeLa Kyoto [3] = assay: thermal stability score vs G1/S (z-score of summed log2 fold changes over temperatures); higher = more thermally stable than in G1/S
HeLa Kyoto [4] = assay: melting temperature (median over replicates), in situ; higher = more thermally stable
[5] = cell cycle stage: early G1 (4.5 h after nocodazole release)
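Wherever melting temperature (median over replicates), in situ is given: HeLa Kyoto cells synchronized by double thymidine or nocodazole block, proteins quantified by TMT10plex mass spectrometry, three independent biological replicates.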
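Wherever solubility change mitosis vs G1/S (difference of NP-40 vs SDS log2 ratios) is given: synchronized HeLa Kyoto cells (double thymidine block for G1/S, nocodazole release for mitosis), protein amounts in NP-40 versus SDS lysates quantified by mass spectrometry, three biological replicates.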
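Wherever solubility in G1/S (NP-40 vs SDS abundance) is given: HeLa Kyoto cells arrested at G1/S by double thymidine block, proteins quantified by TMT10plex mass spectrometry in mild NP-40 versus SDS extracts, three biological replicates.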
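Wherever thermal stability score vs G1/S (z-score of summed log2 fold changes over temperatures) is given: synchronized HeLa Kyoto cells, proteins quantified by TMT10plex mass spectrometry, three biological replicates, mitosis taken 0.5 h after nocodazole release, G1/S directly after double thymidine block.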

Row | Sequence | solubility in G1/S (log2) (HeLa Kyoto [1]) | solubility change mitosis (log2) (HeLa Kyoto [2]) | thermal stability score (HeLa Kyoto [3]; [5]) | thermal stability score (HeLa Kyoto [3]; cell cycle stage: mitosis) | melting temperature (HeLa Kyoto [4]; cell cycle stage: G1/S) | melting temperature (HeLa Kyoto [4]; cell cycle stage: mitosis)
1 | MDPLGAPSQFVDVDTLPSWGDSCQDELNSSDTTAEIFQEDTVRSPFLYNKDVNGKVVLWKGDVALLNCTAIVNTSNESLTDKNPVSESIFMLAGPDLKEDLQKLKGCRTGEAKLTKGFNLAARFIIHTVGPKYKSRYRTAAESSLYSCYRNVLQLAKEQSMSSVGFCVINSAKRGYPLEDATHIALRTVRRFLEIHGETIEKVVFAVSDLEEGTYQKLLPLYFPRSLKEENRSLPYLPADIGNAEGEPVVPERQIRISEKPGAPEDNQEEEDEGLGVDLSFIGSHAFARMEGDIDKQRKLILQGQLSEAALQKQHQRNYNRWLCQARSEDLSDIASLKALYQTGVDNCGRTVMVVVGRNIPVTLIDMDKALLYFIHVMDHIAVKEYVLVYFHTLTSEYNHLDSDFLKKLYDVVDVKYKRNLKAVYFVHPTFRSKVSTWFFTTFSVSGLKDKIHHVDSLHQLFSAISPEQIDFPPFVLEYDARENGPYYTSYPPSPDL [GDAP2] | 0.111 | -0.148 | 0.35 | 0.405 | 48.2 °C | 49.1 °C
2 | MDPSLLRERELFKKRALSTPVVEKRSASSESSSSSSKKKKTKVEHGGSSGSKQNSDHSNGSFNLKALSGSSGYKFGVLAKIVNYMKTRHQRGDTHPLTLDEILDETQHLDIGLKQKQWLMTEALVNNPKIEVIDGKYAFKPKYNVRDKKALLRLLDQHDQRGLGGILLEDIEEALPNSQKAVKALGDQILFVNRPDKKKILFFNDKSCQFSVDEEFQKLWRSVTVDSMDEEKIEEYLKRQGISSMQESGPKKVAPIQRRKKPASQKKRRFKTHNEHLAGVLKDYSDITSSK [GTF2E2] | 0.797 | 0.135 | 1.36 | 3.1 | 48.9 °C | 50.2 °C
3 | MDPTAGSKKEPGGGAATEEGVNRIAVPKPPSIEEFSIVKPISRGAFGKVYLGQKGGKLYAVKVVKKADMINKNMTHQVQAERDALALSKSPFIVHLYYSLQSANNVYLVMEYLIGGDVKSLLHIYGYFDEEMAVKYISEVALALDYLHRHGIIHRDLKPDNMLISNEGHIKLTDFGLSKVTLNRDINMMDILTTPSMAKPRQDYSRTPGQVLSLISSLGFNTPIAEKNQDPANILSACLSETSQLSQGLVCPMSVDQKDTTPYSSKLLKSCLETVASNPGMPVKCLTSNLLQSRKRLATSSASSQSHTFISSVESECHSSPKWEKDCQESDEALGPTMMSWNAVEKLCAKSANAIETKGFNKKDLELALSPIHNSSALPTTGRSCVNLAKKCFSGEVSWEAVELDVNNINMDTDTSQLGFHQSNQWAVDSGGISEEHLGKRSLKRNFELVDSSPCKKIIQNKKTCVEYKHNEMTNCYTNQNTGLTVEVQDLKLSVHKSQQNDCANKENIVNSFTDKQQTPEKLPIPMIAKNLMCELDEDCEKNSKRDYLSSSFLCSDDDRASKNISMNSDSSFPGISIMESPLESQPLDSDRSIKESSFEESNIEDPLIVTPDCQEKTSPKGVENPAVQESNQKMLGPPLEVLKTLASKRNAVAFRSFNSHINASNNSEPSRMNMTSLDAMDISCAYSGSYPMAITPTQKRRSCMPHQQTPNQIKSGTPYRTPKSVRRGVAPVDDGRILGTPDYLAPELLLGRAHGPAVDWWALGVCLFEFLTGIPPFNDETPQQVFQNILKRDIPWPEGEEKLSDNAQSAVEILLTIDDTKRAGMKELKRHPLFSDVDWENLQHQTMPFIPQPDDETDTSYFEARNTAQHLTVSGFSL [MASTL] | 0.0696 | -0.0152 | 2.99 | 5.64 | 48.4 °C | 50.5 °C
4 | MDQCVTVERELEKVLHKFSGYGQLCERGLEELIDYTGGLKHEILQSHGQDAELSGTLSLVLTQCCKRIKDTVQKLASDHKDIHSSVSRVGKAIDKNFDSDISSVGIDGCWQADSQRLLNEVMVEHFFRQGMLDVAEELCQESGLSVDPSQKEPFVELNRILEALKVRVLRPALEWAVSNREMLIAQNSSLEFKLHRLYFISLLMGGTTNQREALQYAKNFQPFALNHQKDIQVLMGSLVYLRQGIENSPYVHLLDANQWADICDIFTRDACALLGLSVESPLSVSFSAGCVALPALINIKAVIEQRQCTGVWNQKDELPIEVDLGKKCWYHSIFACPILRQQTTDNNPPMKLVCGHIISRDALNKMFNGSKLKCPYCPMEQSPGDAKQIFF [RMND5A] | 0.298 | -0.047 | 0.294 | 0.672 | 51.1 °C | 
5 | MDQPFTVNSLKKLAAMPDHTDVSLSPEERVRALSKLGCNITISEDITPRRYFRSGVEMERMASVYLEEGNLENAFVLYNKFITLFVEKLPNHRDYQQCAVPEKQDIMKKLKEIAFPRTDELKNDLLKKYNVEYQEYLQSKNKYKAEILKKLEHQRLIEAERKRIAQMRQQQLESEQFLFFEDQLKKQELARGQMRSQQTSGLSEQIDGSALSCFSTHQNNSLLNVFADQPNKSDATNYASHSPPVNRALTPAATLSAVQNLVVEGLRCVVLPEDLCHKFLQLAESNTVRGIETCGILCGKLTHNEFTITHVIVPKQSAGPDYCDMENVEELFNVQDQHDLLTLGWIHTHPTQTAFLSSVDLHTHCSYQLMLPEAIAIVCSPKHKDTGIFRLTNAGMLEVSACKKKGFHPHTKEPRLFSICKHVLVKDIKIIVLDLR [STAMBPL1] | -0.0141 | -0.137 | -0.397 | -0.032 | 50.3 °C | 51 °C
